According to the Immune Epitope Database (IEDB):

Tests used:
HLA-A*03:01 [1] = experiment: IEDB peptide-MHC binding, purified MHC/direct/fluorescence; filed as Kd, often an IC50 or EC50 that approximates it; ≥ and ≤ were set here for values at or beyond the usual limits of such assays; conditions: source organism: Influenza A virus (A/SW/KS/13481-T/00(H1N2))
HLA-A*02:01 [2] = experiment: as above; conditions: source organism: Influenza A virus (A/SW/KS/13481-T/00(H1N2))
HLA-B*08:01 [3] = experiment: as above; conditions: source organism: Influenza A virus (A/SW/KS/13481-T/00(H1N2))
HLA-A*01:01 = experiment: as above; conditions: source organism: Influenza A virus (A/SW/KS/13481-T/00(H1N2))
HLA-A*11:01 [4] = experiment: as above; conditions: source organism: Influenza A virus (A/SW/KS/13481-T/00(H1N2))
HLA-B*40:01 = experiment: as above; conditions: source organism: Influenza A virus (A/SW/KS/13481-T/00(H1N2))
HLA-B*27:05 = experiment: as above; conditions: source organism: Influenza A virus (A/SW/KS/13481-T/00(H1N2))
HLA-B*46:01 = experiment: as above; conditions: source organism: Influenza A virus (A/SW/KS/13481-T/00(H1N2))
HLA-A*31:01 = experiment: as above; conditions: source organism: Influenza A virus (A/SW/KS/13481-T/00(H1N2))
HLA-B*15:01 [5] = experiment: as above; conditions: source organism: Influenza A virus (A/Puerto Rico/8/34/Mount Sinai(H1N1))
HLA-B*07:02 [6] = experiment: as above; conditions: source organism: Influenza A virus (A/SW/KS/13481-T/00(H1N2))
HLA-A*69:01 = experiment: as above; conditions: source organism: Influenza A virus (A/SW/KS/13481-T/00(H1N2))
HLA-B*58:01 = experiment: as above; conditions: source organism: Influenza A virus (A/SW/KS/13481-T/00(H1N2))
HLA-A*26:01 = experiment: as above; conditions: source organism: Influenza A virus (A/SW/KS/13481-T/00(H1N2))
HLA-A*24:02 = experiment: as above
HLA-A*03:01 [7] = experiment: IEDB peptide-MHC binding, purified MHC/competitive/fluorescence; ≥ and ≤ were set here for values at or beyond the usual limits of such assays
HLA-A*11:01 [8] = experiment: as above
HLA-A*02:01 [9] = experiment: as above; conditions: source organism: Zaire ebolavirus
HLA-B*08:01 [10] = experiment: as above; conditions: source organism: Zaire ebolavirus
HLA-B*15:01 [11] = experiment: as above; conditions: source organism: Zaire ebolavirus
HLA-B*07:02 [12] = experiment: as above; conditions: source organism: Zaire ebolavirus
HLA-B*15:01 [13] = experiment: IEDB peptide-MHC binding, purified MHC/competitive/fluorescence; filed as Kd, often an IC50 or EC50 that approximates it; ≥ and ≤ were set here for values at or beyond the usual limits of such assays; conditions: source organism: Encephalitozoon cuniculi GB-M1
HLA-B*07:02 [14] = experiment: as above; conditions: source organism: Encephalitozoon cuniculi GB-M1
HLA-B*35:01 = experiment: as above; conditions: source organism: Encephalitozoon cuniculi GB-M1
HLA-B*51:01 = experiment: as above; conditions: source organism: Encephalitozoon cuniculi GB-M1
[15] = source organism: Sudan ebolavirus
[16] = source organism: Zaire ebolavirus

## HEKGINPNY
HLA-A*03:01 [1]
  Kd: ≥ 20 µM
HLA-A*02:01 [2]
  Kd: ≥ 20 µM
HLA-B*08:01 [3]
  Kd: ≥ 20 µM
HLA-A*01:01
  Kd: ≥ 20 µM
HLA-A*11:01 [4]
  Kd: ≥ 20 µM
HLA-B*40:01
  Kd: ≥ 20 µM
HLA-B*27:05
  Kd: ≥ 20 µM
HLA-B*46:01
  Kd: ≥ 20 µM
HLA-A*31:01
  Kd: ≥ 20 µM
HLA-B*15:01 [5]
  Kd: 0.541 µM
HLA-B*07:02 [6]
  Kd: ≥ 20 µM
HLA-A*69:01
  Kd: ≥ 20 µM
HLA-B*58:01
  Kd: ≥ 20 µM
HLA-A*26:01
  Kd: ≥ 20 µM
HLA-A*24:02; source organism: Influenza A virus (A/SW/KS/13481-T/00(H1N2))
  Kd: ≥ 20 µM

## HLASTDQLK
HLA-A*03:01 [7]; [15]
  IC50: 27.1 µM
HLA-A*11:01 [8]; [15]
  IC50: 13.8 µM

## ILFQRTFSI
HLA-A*03:01 [7]; [16]
  IC50: 2.46 µM
HLA-A*02:01 [9]
  IC50: 0.309 µM
HLA-B*08:01 [10]
  IC50: 1.26 µM
HLA-A*11:01 [8]; [16]
  IC50: 42.8 µM
HLA-B*15:01 [11]
  IC50: ≥ 375 µM
HLA-B*07:02 [12]
  IC50: ≥ 72.2 µM

## ILRQNMIAL
HLA-B*15:01 [13]
  Kd: 0.188 µM
HLA-B*07:02 [14]
  Kd: 0.201 µM
HLA-B*35:01
  Kd: 3.18 µM
HLA-B*51:01
  Kd: ≥ 20 µM

## IMPRDSWLI
HLA-A*24:02; source organism: Mycobacterium tuberculosis str. Haarlem
  Kd: ≤ 0.001 µM
